Assay results reported in the DeepSol protein solubility set.

Test: soluble on expression in E. coli; label from the status in PepcDB or PDB records

Sequence | soluble on expression in E. coli
MGSDKIHHHHHHMPKLKLIGVDLGGTTFSVGLVSEDGKILKKVTRDTLVENGKEDVIRRIAETILEVSDGEEAPYVGIGSPGSIDRENGIVRFSPNFPDWHNVPLTDELAKRTGKKVFLENDANAFVLGEKWFGAGRGHDHIVALTLGTGIGGGVVTHGYLLTGRDGIGAELGHVVVEPNGPMCNCGTRGCLEAVASATAIRRFLREGYKKYHSSLVYKLAGSPEKADAKHLFDAARQGDRFALMIRDRVVDALARAVAGYIHIFNPEIVIIGGGISRAGEILFGPLREKVVDYIMPSFVGTYEVVASPLVEDAGILGAASIIKERIGG | not soluble
MGSDKIHHHHHHMPLLDIRNLTIELDTPHGRVKALERVSLTLNPGEVHGLVGESGSGRTLLAKAILGIPGHNWTIQADRMMWDGQNLMDMSPSERRVLMGSEMAMIFQDPISSLDPAIAVGTQIIEAMPENKELPWWKRGSDKRKKAQQWLHKVGIKETQKIMSSYAWELSDGECQKVMIAIAVANQPRLLIADEPTNSMEVRTQAQIFRLLSKLNQLQNVSILLISHELETLSQWCDRLTVMYSGQVMESGVTSDVIANPYHPYTKALLDNIPDYSNPEHHKTMMQTLPGSAPALQHLPIGCRLGPRCPQAQKLCVNQPSLCHQKDRYFACHFPYHNEPCHEEPLTKS | not soluble
MGSDKIHHHHHHMPLVLIRKSDYSYETLKPLIFGMLDRLGGHRMAPGSRVLIKPNLLTPATPRQAILTHPFIVRAAVEYALNQNARPLVADSPAMGSFSKILRDSGIQEALAPLKVDYRPFQDSLKIDIGEPFGSIDIAREVIEADFIINLPKFKTHSQMLLTLGVKNLFGCIVGYRKPEWHMKTGVNRPLFARLLVQLYHRISPAFTILDGILALEGEGPGKRGTPKGGWPAPRQRQRPGPRQDRLPDT | not soluble
MGSDKIHHHHHHMPMTNLAALSIPDLQQYAQGAVAAPFGLVLDDGSVLQSLEVVRRVPGKRLVCRGLLNGQAIYAKLFIGGQAGKYAARDKRGARWLAQARLATPTLLLESGVASQGCEALLYGAIPARNAEQVWQDLDEEGRHALALRLVEEVARHHRAGLLQTDLYLKNFLVDAQAVYTLDGDGIRQLRVFGRQRQQWDNLARLISKFDVDAVAAWLPSLLRQYVAVIGGGASDIDIMQQLIARHWRRDMRQYASKVQRSCTDVAVEEKPWHYLAINRAQDSPGVRQALATPDGLLDATSAVRLKSGNTCTVAAVEIDQRKMVIKRYNIKNFWHGLGRAWRPSRAVVSWSNAFRLQLKGIATPAAVAVLERRWLGLRREAYLLTEFMIARDAAEFYADLTIDREVKERVAQRIARLFFQLFCLQLEHGDFKATNILIRDQYPLLIDLDSMRQHACKKRFERRHARDLQRFFKNWQGDAATSQLLAAAFRAVYADGRVLDQAGIVFNQSEKDE | not soluble
MGSDKIHHHHHHMPPVWTLPRLYQHFQGAIDLELWTIPYYLTVLYSIKDPTTVPYRLIQAAVYQEMLHAQLVSNIANAYGYSPTLSAPEYVGTAVPHIDFDLDTPNPTSIFTPYSAELGPLDLTRVNTMCLIEYPEWRTQREPDLADDVTDYGSIGEFYDALRVGMEQLRGHVRGNQKQMDEFGPFYQNSPPLTVTESGDAGFLQALTLVDIIVDQGEGQTQPVETIPTEFQNTADGFQDAWPHFQRFDFIRRMPNWPGVYTGVTDPPAGSPGAEAQARLIADFAGFLDILNGMFSGGGAPPAFGVQMAKLGGDILSCWKLGAVPRYS | not soluble
MGSDKIHHHHHHMPSLFSLYRKIFFGRKPGWDQQPLPHIKVTAPHVTVSETKVSQYAQVCGFQFDGKVLPPTYLYVMAFRLHAVIFTHDGITFPLLGMIHLKNRIQVYRPVTVDETFSLECALTTSRETDSGLEFEFVSKAFVGEELVWESLSTYLYRIDVAGRRVRPPKAIDMAWETPQSWRLSEDLGRRYAKASGDYNLIHLHPVLSKRFGFDRVLAHGMWSKARCLAELMPSIGDRPFTVDVTFKLPLLMPADVGFGYEQNTDNMVFELRDSKGRRPHLSGDVQF | not soluble
MGSDKIHHHHHHMPTIVFVGAGSVRYTIKLVGDLAKTPDLYGSRLVLMDIDEERLKATYILVTKYLRELNAEYTVEQTTSLEEALEGADFVINTALYRAPGHEDGYVHYEIMREVGERHGYYRGIDSQELNMVSDYYTLSNYNHLKMSLDIAKAVEKIAPNAWILQTANPVFEITQLVKRLTKAKIVGFCHGYAHVFHLAKVLGVEPEELDWQVAGVNHAIWMNRFRCRGEDLYPKLDEWIEENASRWEPKNPWDVDFSPAAIDMYRFYGMYPIGDTVRSGTWKYHYDLETKKRWYGKFGGIDNEVERPKFYESLREQRKRLMELAKEVEKDPTIELTKVWPEVFTTGSESVEQHIPFINALVNDKKARLVLNVENRGVIKGIPDDVMVEVPVVVDKEGIHPEKIEPDLTDRIKKFYLLPRILRMEWALEAFISGDRRVLEEILVRDPRTRSYEQAVAVIDDILNLPFNEEMKKHYGS | not soluble
MGSDKIHHHHHHMPTLTEIGNDQLTVQISSLGAEMQSLRTKDGQSLLWHGDAAYWGGRSPILFPIVGKAKDDTLLIDGKPYSMAQHGIARRREFTLLEAGADVCRHELTAGDETKAAYPFDFSLVLEHRLHGAALTVAATVSNRSDTPMPYGLGFHPAFLWPLPGAEGKPHTITLENGAEPPLLRLGGGLLAEEARPSPFHAGRLVLDKSQFEEDAMIFPEGAGTELTYRAEDAASLHFHFENLPNLALWQKPGAPFICIEPWHGMAARHGKSGELTERPYTVILAPGDSARHGFTVTVEA | not soluble
MGSDKIHHHHHHMPVDSKHPLWLANQPRWERCRTALQGRDAVHAAGEKYLPKLAGQDKAEYDAYKGRAMFYGATARTEEALIGMVFRKEPTVTLPAALQPMIEDADLAGTPVDTFIENVTKEVIDVTRVGVLVDYPVASGEFMTVGQAQAAGMRPYLATYKAEAIINWRTARVRGVNQLVLVVLAECYTDPKDEFTAEEKTQYRVLDLVDGFYRVRIYRTDLNTPAFEYTPMMNGKRLPYIPFVLIGRNGEAIDPQKPVLLDLVDVNMSHYRGTADYEHALHFTALPTAVVIGHELKEGQALKIGSSEAWVFTDPQADAKYLEFSGQGLDSIKVSLERKEGMMATLGARILAPEKRDAEAAETAKIHRAGENSVLGGIALGVGRSLAKAFRWAAEWAGAGSGTVEVKLNTEFFPAGLTAQDLTALVGALQAAAISPQTFYDNMRRGSIIDDGVTFEEEQDRIEAAGPALGTLGGQDVKPANGAV | not soluble
MGSDKIHHHHHHMPVLNSVANTVPTRFRFDLLTHDDNDRLQSDSLCPVGFTSLGREPVRLKFGGTKIRDFCVWKTESATGFEARPRVVSDLVTIRFPISGGLARKDGREEVNIDRGQGVIIPFRDMEYERTSRSASMISCTIASVSIFQKMQALYGEERSTFASFVPVVDVNIPQIRIFRTALLRLHDNLQQHGDHNPLSFPIVEELLVFHLLSCWPTTAAVRPTADQVNNRVLRNALDYIEANLASPITVSEIAFAAGVSVRSLQIAFRESKGITPVQYIIECRLDRVHDALKRGFAPGYISQIANAWGFQHHADFSRRYRKRFGETPKQTRTR | not soluble
MGSDKIHHHHHHMQETKTTVRASTLSNGRSLAAYHEDFDRKWASAWGRTLTYAQMHANRVVQSARIVLSHPDIWGKVASGFVNAARGRKRLLRSLEIAVTYRCNARCEQCSCRRDHDPVREKTELLTLPELQRVIDEAVDMGAFQFCINGGEPMLEEEKVFALLDYIKTRHKGYVHLCTNGTLLDDDKVARLAEHHLDSVEMGFDSAFEDVHDANRVRGGYRKVFHNIEAFRKRGVGVVLNTILTNQKVRSDDMLFTMDLAKKHGCMLQVTPCCLTGALRGRMDMMLTEKARFYFYWFLAQSTNNRSDLYSSLTRIKCPAGREKLGLQPYGDVVSCPLIQIRYGNVREKGLAAIQQDILADPYYGLDGSHGCLPAMSETFIRERLSGDR | not soluble
MGSDKIHHHHHHMQIKNLSLKNKKDLQIWKEFLTEHGISNFSSAEVFKIDETIALFEDQRIVATGSLAGNVLKYIAVESEGSGSEFNSVISQLTNLAAGKGIFHLFVFTKAKYSKSFQFIGFKELAKSDNAALLESGDYLIGDYLAELPRVANQEEKKIAGIVMNANPFTKGHRYLVEKAASENDYVYVFVVSTDASLFNSKERLQLVKEGTADLKNVFVVSGGDYMVSYATFPAYFLTSDQTVIEYQTTLDALIFKNQIAPVLNIQTRFLGEEPFSKTTGIYNRILEKVLPPSVSVKIIPRAKTQSETIITATEVRQLIAKNNLVPLKQFLPFTTIKYVEEHKTELQSRIKKGININGN | not soluble
MGSDKIHHHHHHMQILTIDVGGTTALFELQLAGHTEQYKIPTGEGFKIEELNNQIAALERDYDLQDYQLAIGVPGLVQNNRLVACKSLPGLNGLSFDTVKTQGELKFICNDMDAGMQATCDAKYACELLVMCGTGIGMSIAFNGQAFTGATGVAGELGHCRVMTESGEFSLEQLASGDSVRSRNITTQDDLYRAGSYLGMGLAWTVNLFNPNRIWLAGNMMNSAPYYKGCLESLKQMALSAPLAEMKINRVDDMETLVCRGLSAMLARDYPRA | not soluble
MGSDKIHHHHHHMQINNKIIISCSIIASLVSQTTYAQINTGTTSNKLTAFIHAELIIAPGKRLSDATLLVGNNRIKAIIEHGDIPAGAFKIDLSGYTIYPGFIDPFTDYGIEFEYPKLGLTRPVYGIKRIGGNADNGAIHSEKEWFNYVYPNKERAKEWINNGFTSVQSSKLDGIFRGTGVSLSLADKTANEVIYRARSQPFMAFDKGSSEQDYPSSLMGSIALIRPRIQIISATLGQNGEEGVSC | not soluble
MGSDKIHHHHHHMQIVACYSNKGGVGKTATAVNLAYAFATSGRRTLLCDLDPQGASGFYFRVKPSKKLTEARFFEDVEHFTKSIRGSDYDNLDILPANMSFRDFDVFLSKMKDARSRLKKALKAVKGDYDIVLLDCPPNISILSENIFRAADAVVTPVIPTTLSQRTFEQLLEFFREHDLPMEKIHAFFSMIQGTKTLHGEMIVELTHNYPKRIMAAKIPFASEIERMGVVRAPVLATAPDSPAGKAYQALFDELLERIVP | not soluble
MGSDKIHHHHHHMQIVQIEQAPKDYISDIKIIPSKSLLLITSWDGSLTVYKFDIQAKNVDLLQSLRYKHPLLCCNFIDNTDLQIYVGTVQGEILKVDLIGSPSFQALTNNEANLGICRICKYGDDKLIAASWDGLIEVIDPRNYGDGVIAVKNLNSNNTKVKNKIFTMDTNSSRLIVGMNNSQVQWFRLPLCEDDNGTIEESGLKYQIRDVALLPKEQEGYACSSIDGRVAVEFFDDQGDDYNSSKRFAFRCHRLNLKDTNLAYPVNSIEFSPRHKFLYTAGSDGIISCWNLQTRKKIKNFAKFNEDSVVKIACSDNILCLATSDDTFKTNAAIDQTIELNASSIYIIFDYEN | not soluble
MGSDKIHHHHHHMQKHARVIYNPTSGREIIKKNLADVLSILEQAGYVTSAHATTAEPDDAKHAAEEAVRNRFDLVVAAGGDGTINEVINGIAEKEYRPKVGIIPTGTTNDFARALHVPRDVIKATKIIAAGQSVAMDIGKANETYFINIGGGGRLTELTYDVPSRLKTMLGQLAYYLKGIEMLPSLKATKVKVEYDQGVFEGEVMFFLLGLTNSIGGFEKIAPDAKLDDGKFSLIIVKKVNLAEFIRLVTLALRGDHIKEPNVIYVKSEKVIVNSEDKMLINLDGELGGETPMEFRNLRQHIEFFASVDDIPATDLFIKENS | not soluble
MGSDKIHHHHHHMQKKRFFDMRKYRFFSSIECDAMLTFKQMEALYWIVQLGSFDAAATRLNTTQSAVSKRIQELERAFDLTVFDRAHRSARLTDKGAELFDHAKELLEQRDRVVERMSSKEALVRHVRIGVTELTALTWLPRLIAAIQAAYPRVHVEAEVDLTATLRERLAADTIDLIVVPQIHAAESFAATVVGEVDNAWMCAPGFMPKRKTAISLTDVARFPLILQGTLSGTGHLYTRFLQEHCVAMQRVLTSNSLIAQIGLTLSGLGVSYLPKACVAHLVACEALDIVRTRPALPPVRYVALHRAERAHSLTADIVRLAAQACDFSTSLLDPGAHD | not soluble
